This note sets out measurements from article PMC4374696, “Protease Activity of PprI Facilitates DNA Damage Response: Mn(2+)-Dependence and Substrate Sequence-Specificity of the Proteolytic Reaction”.

Series [1] deals with T1, DdrO (Deinococcus radiodurans R1 (ATCC 13939)) (UniProt Q9RRB8).
T1 sequence: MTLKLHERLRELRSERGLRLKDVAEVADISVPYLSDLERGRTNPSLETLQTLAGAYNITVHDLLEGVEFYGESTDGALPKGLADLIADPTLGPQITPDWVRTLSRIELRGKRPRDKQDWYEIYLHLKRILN
Nature of the series: EMSA. The settings on record: 150 mM NaCl, 20 mM Tris-HCl pH 8.0, 5 mM MgCl2, 1.6 uM DNA, 0-16 uM protein, 30 C; 12% TB-PAGE.

A further series deals with T2, DdrO (Deinococcus radiodurans R1 (ATCC 13939), UniProt Q9RRB8 1-131).
T2 sequence: T1 sequence
Nature of the series: EMSA; 150 mM NaCl, 20 mM Tris-HCl pH 8.0, 5 mM MgCl2, 1.6 uM DNA, 0-16 uM protein, 30 C; 12% TB-PAGE. The following applies: protein: recombinant; tags: 6xHis-MBP tag removed by TEV; chain copies: 2; blunt.

For the molecule “AACGCCAGTTGATTAAGGGGAAATGGAGAGGGGTTCGGGGCGGCCCCTGCCTGCTCTGTCGGCCAGCTTTCGGCAGAGTGGGCCCCGGCTCCGGCGCACTGACGCGGGCTAGACCCTCCCGCGCCGCCCTCCACCGCCGCCTCTACCTTCGTCCTATGCCCCG (double strand) [PddrA- (no RDRM)]”, the binding entry in series [1] is given as “no binding”. Consider “AGAAACACCAGCATGATCGCAAGGTAGGCTGCTCCGCGCACTGGGGCGTCCGCCGAAAGGTGCAGCGCGCCTCACCTTCCCTTGACCCATCCCATTCAGGGCCGCACCCTGTAGACACTGGTTACGTCCTCCCATATACTCCGGTGAGGTTGTTATGCTGCTAGCAGAAATCATCAGTGTGGGCACG (double strand) [PrecA (recA promoter, RDRM)]”, for which the binding entry in series [1] is reported as “binds”.

With “AGGAGCAGTTTCTTCATGAAGCCTCCAGATCAAAGGCGCACGAAGCAGGCCTGCCCCAAAGGAAGGCGGGCCTGCTGGGTTGCGTGACAGCCGGGACGTAAATAATGGCCCCAGGGTAGGGGCGGGCCGGGGGGGTGTCAAGGTACGCAGCGGGGGGCCTCCATGATTCTGCCCACAACGTAAACGCGCTATCCTGGGGAG (double strand) [PrecQ- (no RDRM)]”, the binding entry in series [1] was “no binding”. Same read-out and setting: with “AGTTTAGAACAGAATAACATTACGGTCAAGACATAAAACGCCAGTTGATTAAGGGGAAATGGAGAGGGGTTCGGGGCGGCCCCTGCCTGCTCTGTCGGCCAGCTTTCGGCAGAGTGGGCCCCGGCTCCGGCGCACTGACGCGGGCTAGACCCTCCCGCGCCGCCCTCCACCGCCGCCTCTACCTTCGTCCTATGCCCCG (double strand) [PddrA]” the entry was “binds”; with “CAACCTCACCGGAGTATATGGGAGGACGTAACCAGTGTCTACAGGGTGCGGCCCTGAATGGGATGGGTCAAGGGAAGGTGAGGCGCGCTGCACCTTTCGGCGGACGCCCCAGTGCGCGGAGCAGCCTACCTTGCGATCATGCTGGTGTTTCT (double strand) [PrecA- (no RDRM)]”, “no binding”; with “CCCTTGCCATACTGCCTTTATTATGCCCTGAACAGATTAAAAAGGCCAGGGGTAGCACTCTGGCATAAGGAAAACCCAGCTTCGGCGGTCTTTGTGCCTTTGCCAGCTTTCACGGCGAAAGAAACGTCCAGATGACAGTGACACCCAAAGTGCACCCGGCGCCGTTCAGGGCACAGGTGCGGACTACAGTGGGGCCGTGAC (double strand) [PpprA]”, “binds”. With “GCACTGCGGCTTGCAGCGCCGGGTGACCATGCCCAGCCTCCCTGCTCCAGCGCCCGCCCGCAAACCCGAGCGGCGGCTGTTCGGGCTCTTGCGAATCTGAAGGTCTTGGTGCCCGGCCTCTGCTGGGAGGCGGGACACTGGCACCGGCTTCCCCGATGTG (double strand) [PddrB- (no RDRM)]”, in series [1], the binding result was “no binding”. The same measure, in the same setting: next, “GCACTGCGGCTTGCAGCGCCGGGTGACCATGCCCAGCCTCCCTGCTCCAGCGCCCGCCCGCAAACCCGAGCGGCGGCTGTTCGGGCTCTTGCGAATCTGAAGGTCTTGGTGCCCGGCCTCTGCTGGGAGGCGGGACACTGGCACCGGCTTCCCCGATGTGTTATGTTATTTACGTAAGGAGGAGGCAGATGTTGCAGATT (double strand) [PddrB]”: “binds”. Regarding “TAAAAAGGCCAGGGGTAGCACTCTGGCATAAGGAAAACCCAGCTTCGGCGGTCTTTGTGCCTTTGCCAGCTTTCACGGCGAAAGAAACGTCCAGATGACAGTGACACCCAAAGTGCACCCGGCGCCGTTCAGGGCACAGGTGCGGACTACAGTGGGGCCGTGAC (double strand) [PpprA- (no RDRM)]”, the binding result in series [1] is listed as “no binding”. Same read-out and setting: with “TACTGCGGTCTGACGATGACCTCGTCCTTATCTGCGGGAGCCTCTATCTGCTCGGCGAACTGCGTCCTTTGCTGCTGGGCGAGCAGTCGGAAGGCCACGAACGCTGGCAATAGCCACAGCAGCGGCCAATTTCTGGTTTCGAAACAGGAATAAGGCAAGTTGACTGCCCTCA (double strand) [PddrO- (no RDRM)]” the entry was “no binding”; with “TACTGCGGTCTGACGATGACCTCGTCCTTATCTGCGGGAGCCTCTATCTGCTCGGCGAACTGCGTCCTTTGCTGCTGGGCGAGCAGTCGGAAGGCCACGAACGCTGGCAATAGCCACAGCAGCGGCCAATTTCTGGTTTCGAAACAGGAATAAGGCAAGTTGACTGCCCTCATTCTGTATTGACCGTAGCAAGGAGCGGTGTTACACT (double strand) [PddrO]”, “binds”; with “TAGTAACAAGCAGAGTCAATTATGTCAATGACATAAAAGGCTCAGGCCTTCTTGGTCTTCCACTCCGGGCGGTCCTTGACCACCAGGACGCGGCGGACGTTGTCGCGCAGGCGCAGGCTGCTGGCGATGGCGGTTTCGGGGTTGCCCGAAGCCTTGATGGTGTACATCAGGTAGTAGCCTTCGCGGTCCTTGCCCACCTGG (double strand) [PdrssB]”, “binds”.

B1: minimum DdrO binding sequence of PrecA (21 bp) (dsDNA)
DNA 1: TGTTATGCTGCTAGCAGAAAT
DNA 2: ATTTCTGCTAGCAGCATAACA
In the case of B1, the binding result with DdrO is “binds”.
